According to patent US20030099644A1:

Target: CD40 on murine bone cells (MLO-Y4 osteocyte cell line, primary osteoblasts, MC3T3, OCT-1 and 2T3 osteoblast cell lines) (mouse) (UniProt P27512)
Experiment: cell-based or functional assay

UniProt P27512, sequence (P27512 20-289): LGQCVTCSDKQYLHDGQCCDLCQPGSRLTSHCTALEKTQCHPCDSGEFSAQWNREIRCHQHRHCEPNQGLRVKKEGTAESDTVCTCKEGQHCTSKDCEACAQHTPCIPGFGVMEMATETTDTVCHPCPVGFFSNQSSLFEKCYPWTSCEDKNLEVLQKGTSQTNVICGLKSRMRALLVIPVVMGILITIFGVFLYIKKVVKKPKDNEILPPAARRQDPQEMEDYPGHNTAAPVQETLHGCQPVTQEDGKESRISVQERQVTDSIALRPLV

percent positive cells, Annexin V (MLO-Y4 cells, CD40L alone) (percent positive cells): 11.5
percent positive cells, Annexin V (MLO-Y4 cells, Dex + CD40L) (percent positive cells): 13.7
percent positive cells, Annexin V (MLO-Y4 cells, TNF + CD40L) (percent positive cells): 13.9
percent positive cells, GFP (MLO-Y4 cells, CD40L alone) (percent positive cells): 8.7
percent positive cells, GFP (MLO-Y4 cells, Dex + CD40L) (percent positive cells): 9.9
percent positive cells, GFP (MLO-Y4 cells, Etoposide + CD40L) (percent positive cells): 8.4
percent positive cells, GFP (MLO-Y4 cells, TNF + CD40L) (percent positive cells): 15
percent positive cells, Trypan Blue (MLO-Y4 cells, CD40L alone) (percent positive cells): 7.2
percent positive cells, Trypan Blue (MLO-Y4 cells, Dex + CD40L) (percent positive cells): 7.8
percent positive cells, Trypan Blue (MLO-Y4 cells, Etoposide + CD40L) (percent positive cells): 7.9
percent positive cells, Trypan Blue (MLO-Y4 cells, TNF + CD40L) (percent positive cells): 12.9
Substance: Soluble, trimeric CD40L (ligand)
